The Immune Epitope Database (IEDB)

Experiments:
[1] = molecular target: HLA-B*15:01; assay: IEDB peptide-MHC binding, purified MHC/competitive/fluorescence; filed as Kd, often an IC50 or EC50 that approximates it; ≥ and ≤ were set here for values at or beyond the usual limits of such assays
[2] = molecular target: HLA-B*35:01; assay: as above
[3] = molecular target: HLA-A*01:01; assay: IEDB peptide-MHC binding, purified MHC/direct/fluorescence; filed as Kd, often an IC50 or EC50 that approximates it; ≥ and ≤ were set here for values at or beyond the usual limits of such assays
[4] = molecular target: HLA-A*02:01; assay: as above; conditions: source organism: Vibrio cholerae
[5] = molecular target: HLA-A*03:01; assay: as above; conditions: source organism: Vibrio cholerae
[6] = molecular target: HLA-A*11:01; assay: as above; conditions: source organism: Vibrio cholerae
[7] = molecular target: HLA-A*26:01; assay: as above; conditions: source organism: Vibrio cholerae V52
[8] = molecular target: HLA-A*31:01; assay: as above
[9] = molecular target: HLA-A*69:01; assay: as above
[10] = molecular target: HLA-B*07:02; assay: as above; conditions: source organism: Vibrio cholerae
[11] = molecular target: HLA-B*15:01; assay: as above; conditions: source organism: Vibrio cholerae
[12] = molecular target: HLA-B*15:17; assay: as above; conditions: source organism: Vibrio cholerae
[13] = molecular target: HLA-B*18:01; assay: as above; conditions: source organism: Vibrio cholerae
[14] = molecular target: HLA-B*27:05; assay: as above
[15] = molecular target: HLA-B*38:01; assay: as above
[16] = molecular target: HLA-B*39:01; assay: as above; conditions: source organism: Vibrio cholerae V52
[17] = molecular target: HLA-B*40:01; assay: as above
[18] = molecular target: HLA-B*46:01; assay: as above
[19] = molecular target: HLA-B*48:01; assay: as above
[20] = molecular target: HLA-B*51:01; assay: as above; conditions: source organism: Vibrio cholerae
[21] = molecular target: HLA-B*57:01; assay: as above; conditions: source organism: Vibrio cholerae
[22] = molecular target: HLA-B*58:01; assay: as above
[23] = molecular target: HLA-A*30:01; assay: IEDB peptide-MHC binding, purified MHC/competitive/fluorescence; filed as Kd, often an IC50 or EC50 that approximates it; ≥ and ≤ were set here for values at or beyond the usual limits of such assays; conditions: source organism: Vibrio cholerae V52
[24] = molecular target: HLA-B*08:01; assay: as above; conditions: source organism: Vibrio cholerae V52
[25] = molecular target: HLA-A*02:01; assay: IEDB peptide-MHC binding, cellular MHC/competitive/fluorescence; ≥ and ≤ were set here for values at or beyond the usual limits of such assays; conditions: source organism: Homo sapiens
[26] = molecular target: HLA-C*12:03; assay: IEDB peptide-MHC binding, purified MHC/direct/fluorescence; filed as Kd, often an IC50 or EC50 that approximates it; ≥ and ≤ were set here for values at or beyond the usual limits of such assays
[27] = molecular target: HLA-B*15:42; assay: IEDB peptide-MHC binding, purified MHC/competitive/fluorescence; filed as Kd, often an IC50 or EC50 that approximates it; ≥ and ≤ were set here for values at or beyond the usual limits of such assays; conditions: source organism: Gorilla gorilla
[28] = molecular target: HLA-B*45:06; assay: as above; conditions: source organism: Gorilla gorilla
[29] = molecular target: HLA-B*83:01; assay: as above; conditions: source organism: Gorilla gorilla
[30] = molecular target: HLA-C*14:02; assay: as above; conditions: source organism: Gorilla gorilla
[31] = molecular target: HLA-A*26:02; assay: IEDB peptide-MHC binding, purified MHC/direct/fluorescence; filed as Kd, often an IC50 or EC50 that approximates it; ≥ and ≤ were set here for values at or beyond the usual limits of such assays; conditions: source organism: Vibrio vulnificus CMCP6
[32] = molecular target: HLA-A*26:03; assay: as above; conditions: source organism: Vibrio vulnificus CMCP6
[33] = molecular target: HLA-B*08:01; assay: as above; conditions: source organism: Vibrio vulnificus CMCP6
[34] = molecular target: HLA-B*08:02; assay: as above; conditions: source organism: Vibrio vulnificus CMCP6
[35] = molecular target: HLA-B*15:09; assay: as above; conditions: source organism: Vibrio vulnificus CMCP6
[36] = molecular target: HLA-A*02:01; assay: IEDB peptide-MHC binding, purified MHC/competitive/fluorescence; filed as Kd, often an IC50 or EC50 that approximates it; ≥ and ≤ were set here for values at or beyond the usual limits of such assays; conditions: source organism: Vibrio vulnificus CMCP6
[37] = molecular target: HLA-A*02:03; assay: as above; conditions: source organism: Vibrio vulnificus CMCP6
[38] = molecular target: HLA-A*02:06; assay: as above; conditions: source organism: Vibrio vulnificus CMCP6
[39] = molecular target: HLA-A*11:01; assay: as above; conditions: source organism: Vibrio vulnificus CMCP6
[40] = molecular target: HLA-B*15:17; assay: as above; conditions: source organism: Vibrio vulnificus CMCP6
[41] = molecular target: HLA-B*57:01; assay: as above; conditions: source organism: Vibrio vulnificus CMCP6
[42] = source organism: Desulfitobacterium hafniense DCB-2
[43] = source organism: Vibrio cholerae
[44] = source organism: Vibrio vulnificus
[45] = source organism: Vibrio vulnificus CMCP6
[46] = source organism: Bacillus anthracis str. A0488

## FAGDLYRMY
[1]; [42]
  Kd: 0.806 µM
[2]; [42]
  Kd: 0.0071 µM

## IVKQGRDAL
[3]; [43]
  Kd: ≥ 20 µM
[4]
  Kd: ≥ 20 µM
[5]
  Kd: ≥ 20 µM
[6]
  Kd: ≥ 20 µM
[7]
  Kd: ≥ 20 µM
[8]; [43]
  Kd: ≥ 20 µM
[9]; [43]
  Kd: ≥ 20 µM
[10]
  Kd: 0.226 µM
[11]
  Kd: 1.34 µM
[12]
  Kd: ≥ 20 µM
[13]
  Kd: ≥ 20 µM
[14]; [43]
  Kd: ≥ 20 µM
[15]; source organism: Vibrio cholerae V52
  Kd: ≥ 20 µM
[16]
  Kd: ≥ 20 µM
[17]; [43]
  Kd: ≥ 20 µM
[18]; [43]
  Kd: ≥ 20 µM
[19]; [43]
  Kd: ≥ 20 µM
[20]
  Kd: ≥ 20 µM
[21]
  Kd: ≥ 20 µM
[22]; [43]
  Kd: ≥ 20 µM
[23]
  Kd: ≥ 20 µM
[24]
  Kd: 1.46 µM

## SLSEKTVLL
[25]
  IC50: 21 µM

## VMAPRTLVL
[25]
  IC50: 10.5 µM
[26]; source organism: Gorilla gorilla
  Kd: 2.28 µM
[27]
  Kd: ≥ 5 µM
[28]
  Kd: ≥ 5 µM
[29]
  Kd: ≥ 5 µM
[30]
  Kd: 0.0772 µM

## VTFFCVMTY
[3]; [44]
  Kd: 0.993 µM
[31]
  Kd: 1.78 µM
[32]
  Kd: ≥ 20 µM
[8]; [44]
  Kd: ≥ 20 µM
[9]; [44]
  Kd: ≥ 20 µM
[33]
  Kd: ≥ 20 µM
[34]
  Kd: ≥ 20 µM
[35]
  Kd: ≥ 20 µM
[14]; [44]
  Kd: ≥ 20 µM
[15]; [45]
  Kd: ≥ 20 µM
[17]; [44]
  Kd: ≥ 20 µM
[18]; [44]
  Kd: ≥ 20 µM
[19]; [44]
  Kd: ≥ 20 µM
[22]; [45]
  Kd: 0.111 µM
[26]; [45]
  Kd: 0.043 µM
[36]
  Kd: 2.1 µM
[37]
  Kd: ≥ 20 µM
[38]
  Kd: 0.478 µM
[39]
  Kd: 0.225 µM
[1]; [45]
  Kd: 2.23 µM
[40]
  Kd: 0.0151 µM
[41]
  Kd: 1.75 µM

## WCMQHLPSY
[1]; [46]
  Kd: 0.102 µM
[2]; [46]
  Kd: 0.004 µM
